In patent US20200155602A1 (IMMATICS BIOTECHNOLOGIES, published 2020):

Molecular target: T1, HLA-A*02:01 (human)
T1 construct: Peptide-receptive HLA-A*02:01 monomer obtained by UV cleavage of a UV-sensitive ligand; captured on streptavidin plates; also called peptide-receptive MHC molecules; MHC class I
Assay: UV-ligand exchange, anti-b2m ELISA; grade of peptide exchange yield (>10% = +; >20% = ++; >50 = +++; >75% = ++++)
Excerpt: Candidate peptides for T cell based therapies according to the present invention were further tested for their MHC binding capacity (affinity). The individual peptide-MHC complexes were produced by UV-ligand exchange, where a UV-sensitive peptide is cleaved upon UV-irradiation, and exchanged with the peptide of interest as analyzed. Only peptide candidates that can effectively bind and stabilize the peptide-receptive MHC molecules prevent dissociation of the MHC complexes. To determine the yield of the exchange reaction, an ELISA was performed based on the detection of the light chain (β2m) of stabilized MHC complexes. The assay was performed as generally described in Rodenko et al. (Rodenko et al., 2006).
96 well MAXISorp plates (NUNC) were coated over night with 2 ug/ml streptavidin in PBS at room temperature, washed 4× and blocked for 1 h at 37° C. in 2% BSA containing blocking buffer. Refolded HLA-A*02:01/MLA-001 monomers served as standards, covering the range of 15-500 ng/ml. Peptide-MHC monomers of the UV-exchange reaction were diluted 100-fold in blocking buffer. Samples were incubated for 1 h at 37° C., washed four times, incubated with 2 ug/ml HRP conjugated anti-β2m for 1 h at 37° C., washed again and detected with TMB solution that is stopped with […]. Absorption was measured at 450 nm. Candidate peptides that show a high exchange yield (preferably higher than 50%, most preferred higher than 75%) are generally preferred for a generation and production of antibodies or fragments thereof, and/or T cell receptors or fragments thereof, as they show sufficient avidity to the MHC molecules and prevent dissociation of the MHC complexes.

Row | Binder | peptide exchange yield [%]
1 | ALEEANADLEV | 50 to 75
2 | STASAITPSV | 20 to 50
3 | GLYGIKDDVFL | > 75
4 | SLDGNPLAV | > 75
5 | ILFDEVLTFA | > 75
6 | GLHQDFPSVVL | 50 to 75
7 | VLAENPDIFAV | 50 to 75
8 | ALMAGCIQEA | > 75
9 | ALPEPSPAA | 50 to 75
10 | TLNDGVVVQV | > 75

Now from value to binder:

Row | peptide exchange yield [%] | Binder
11 | > 75 | YVMESMTYL
12 | > 75 | VLDEGLTSV
13 | > 75 | SLFPYVVLI
14 | 50 to 75 | QLIEKITQV
15 | > 75 | AQLNIGNVLPV
16 | 50 to 75 | SLQERQVFL
17 | > 75 | MLFENMGAYTV
18 | 50 to 75 | YIDPYKLLPL
19 | > 75 | ALASAPTSV
20 | 50 to 75 | LMAPAPSTV
21 | 50 to 75 | VLYGDVEEL
22 | 20 to 50 | SLRAFLMPI
23 | > 75 | QLLQYVYNL
24 | > 75 | FLFPAFLTA
